# Data from PMC8786865 (Nature Communications, 2022).
# Molecular target: T1, SARS-CoV-2 spike receptor-binding domain (RBD) (SARS-CoV-2, Wuhan-Hu-1, UniProt P0DTC2)
# T1 construct: also called SARS-CoV-2 RBD
# Assay: SPR; array SPR (Carterra LSA), HC200M chip; IgG captured on immobilised anti-human Fc; antigen as analyte in a 7-point series, RBD 300 nM to 411 pM or trimer 100 nM to 137 pM, in 1x HBSTE with 0.5 mg/mL BSA; association 5 min, dissociation 11 min; one-site model; constants for the trimer are called avidities
# Conditions: both partners purified
row,Binder,binding result
1,"selected anti-SARS-CoV-2 spike antibody B3 (antibody, V domains shown) VH: EVQLVQSGAEVKKPGASVKVSCKVSGYTSPATIHWVRQAPGKGLEWMGGISPYKGDTIYAQKFQGRVTMTEDTSTDTAYMELSSLKSEDTAVYYCAKDSYYYDSSGSGLGGGFDYWGQGTLVTVSS VL: DIQMTQSPSSVSASVGDRVTITCRASQDIGNHLAWYQQKPGKAPKLLIYASSNLASGVPSRFSGSGSGTDFTLTISSLQPEDFANYYCHQYATYPWTFGGGTKVEIK",binds
2,"selected anti-SARS-CoV-2 spike antibody F1 (antibody, V domains shown) VH: EVQLVQSGAEVKKPGASVKVSCKVSGYPFTSYAIHWVRQAPGKGLEWMGGITPYNADTIYAQKFQGRVTMTEDTSTDTAYMELSSLKSEDTAVYYCARDGYSSGYYGMDVWGQGTTVTVSS VL: DIQMTQSPSSVSASVGDRVTITCRASQDIGNHLAWYQQKPGKAPKLLIYASSNLASGVPSRFSGSGSGTDFTLTISSLQPEDFANYYCHQYATYPWTFGGGTKVEIK",binds
3,"selected anti-SARS-CoV-2 spike antibody B11 (antibody, V domains shown) VH: EVQLVQSGAEVKKPGASVKVSCKVSGYSFTDHSIHWVRQAPGKGLEWMGGINPYTGDTIYAQKFQGRVTMTEDTSTDTAYMELSSLKSEDTAVYYCARDAYPYYYGMDVWGQGTTVTVSS VL: DIQMTQSPSSVSASVGDRVTITCRASQDIGNHLAWYQQKPGKAPKLLIYASSNLASGVPSRFSGSGSGTDFTLTISSLQPEDFANYYCHQYATYPWTFGGGTKVEIK",binds
4,"selected anti-SARS-CoV-2 spike antibody G5 (antibody, V domains shown) VH: QVQLVQSGAEVKKPGASVKVSCKVSGYSFTDHSIHWVRQAPGKGLEWMGGINPYTGDTIYAQKFQGRVTMTEDTSTDTAYMELSSLKSEDTAVYYCARDGYSYGYLSGMDVWGQGTTVTVSS VL: DIQMTQSPSSVSASVGDRVTITCRASQDISHHLAWYQQKPGKAPKLLIYDASLRATGIPSRFSGSGSGTDFTLTISSLQPEDFANYYCHQYAAYPWTFGGGTKVEIK",binds
5,"selected anti-SARS-CoV-2 spike antibody A11 (antibody, V domains shown) VH: QVQLVQSGAEVKKPGASVKVSCKVSGYSFTDHSIHWVRQAPGKGLEWMGGINPYTGDTIYAQKFQGRVTMTEDTSTDTAYMELSSLKSEDTAVYYCARDGYSYGYLSGMDVWGQGTTVTVSS VL: DIQMTQSPSSVSASVGDRVTITCRASQDIGNHLAWYQQKPGKAPKLLIYASSNLASGVPSRFSGSGSGTDFTLTISSLQPEDFANYYCHQYATYPWTFGGGTKVEIK",binds
6,"selected anti-SARS-CoV-2 spike antibody G12 (antibody, V domains shown) VH: EVQLVQSGAEVKKPGASVKVSCKVSGYTFSNHAIHWVRQAPGKGLEWMGGINPNIGDTIYAQKFQGRVTMTEDTSTDTAYMELSSLKSEDTAVYYCARDGYGDYRGLYGMDVWGQGTTVTVSS VL: DIQMTQSPSSVSASVGDRVTITCRASQDIGNHLAWYQQKPGKAPKLLIYASSNLASGVPSRFSGSGSGTDFTLTISSLQPEDFANYYCHQYATYPWTFGGGTKVEIK",binds
7,"selected anti-SARS-CoV-2 spike antibody F5 (antibody, V domains shown) VH: EVQLVQSGAEVKKPGASVKVSCKVSGYTFSNHAIHWVRQAPGKGLEWMGGINPNIGDTIYAQKFQGRVTMTEDTSTDTAYMELSSLKSEDTAVYYCARDGYSGYVEGMDVWGQGTTVTVSS VL: DIQMTQSPSSVSASVGDRVTITCRASQNIHSYLAWYQQKPGKAPKLLIYDTSKLQSGVPSRFSGSGSGTDFTLTISSLQPEDFANYYCHQYAAYPWTFGGGTKVEIK",binds
8,"selected anti-SARS-CoV-2 spike antibody A10 (antibody, V domains shown) VH: QVQLVQSGAEVKKPGASVKVSCKVSGYSFTDHSIHWVRQAPGKGLEWMGGINPNIGDTIYAQKFQGRVTMTEDTSTDTAYMELSSLKSEDTAVYYCARDGYGDYRGLYGMDVWGQGTTVTVSS VL: DIQMTQSPSSVSASVGDRVTITCRASRDINKYLAWYQQKPGKAPKLLIYGESSRAAGVPSRFSGSGSGTDFTLTISSLQPEDFANYYCHQYATYPWTFGGGTKVEIK",binds
9,"selected anti-SARS-CoV-2 spike antibody H2 (antibody, V domains shown) VH: EVQLVQSGAEVKKPGASVKVSCKVSGYPFTRSTIHWVRQAPGKGLEWMGGINAGTGDTIYAQKFQGRVTMTEDTSTDTAYMELSSLKSEDTAVYYCARDGYSSGYYGMDVWGQGTLVTVSS VL: DIQMTQSPSSVSASVGDRVTITCRASQGISDFLAWYQQKPGKAPKLLIYGASNRATGVPSRFSGSGSGTDFTLTISSLQPEDFANYYCHQYATYPWTFGGGTKVEIK",binds
10,"selected anti-SARS-CoV-2 spike antibody G2 (antibody, V domains shown) VH: QVQLVQSGAEVKKPGASVKVSCKVSGYTFTANAIHWVRQAPGKGLEWMGGIGPGQGDTIYAQKFQGRVTMTEDTSTDTAYMELSSLKSEDTAVYYCARDGHCSGGSCPSGMDVWGQGTTVTVSS VL: DIQMTQSPSSVSASVGDRVTITCRASQDIGNHLAWYQQKPGKAPKLLIYGASIRESGVPSRFSGSGSGTDFTLTISSLQPEDFANYYCQQYSAFPWTFGGGTKVEIK",binds
11,"selected anti-SARS-CoV-2 spike antibody G6 (antibody, V domains shown) VH: EVQLVESGAEVKKPGASVKVSCKVSGYTFSNHAIHWVRQAPGKGLEWMGGINPNIGDTIYAQKFQGRVTMTEDTSTDTAYMELSSLKSEDTAVYYCARDGYPGDYSGLDVWGQGTLVTVSS VL: DIQMTQSPSSVSASVGDRVTITCRASQPISSYLAWYQQKPGKAPKLLIYEASKLQSGVPSRFSGSGSGTDFTLTISSLQPEDFANYYCHQYATYPWTFGGGTKVEIK",binds
12,"selected anti-SARS-CoV-2 spike antibody C2 (antibody, V domains shown) VH: QVQLVQSGAEVKKPGASVKVSCKASGYTSPATIHWVRQAPGKGLEWMGGISPYKGDTIYAQKFQGRVTMTEDTSTDTAYMELSSLKSEDTAVYYCARDAYSSSYYYGMDVWGQGTTVTVSS VL: DIQMTQSPSSVSASVGDRVTITCRASEDISKYLAWYQQKPGKAPKLLIYGASNLHTGVPSRFSGSGSGTDFTLTISSLQPEDFANYYCHQYATYPWTFGGGTKVEIK",binds
13,"selected anti-SARS-CoV-2 spike antibody C4 (antibody, V domains shown) VH: EVQLVQSGAEVKKPGASVKVSCKVSGYSFTDHSIHWVRQAPGKGLEWMGGINPYTGDTIYAQKFQGRVTMTEDTSTDTAYMELSSLKSEDTAVYYCARDGYSGYDYGSVGRDYYYYGMDVWGQGTTVTVSS VL: DIQMTQSPSSVSASVGDRVTITCRASQDIGNHLAWYQQKPGKAPKLLIYASSNLASGVPSRFSGSGSGTDFTLTISSLQPEDFANYYCHQYATYPWTFGGGTKVEIK",binds
14,"selected anti-SARS-CoV-2 spike antibody F7 (antibody, V domains shown) VH: QVQLVQSGAEVKKPGASVKVSCKVSGYSFSTYTIHWVRQAPGKGLEWMGGINPYTGDTIYAQKFQGRVTMTEDTSTDTAYMELSSLKSEDTAVYYCARDGYSGYESSYYYYGMDVWGQGTTVTVSS VL: DIQMTQSPSSVSASVGDRVTITCRASQDIGNHLAWYQQKPGKAPKLLIYASSNLASGVPSRFSGSGSGTDFTLTISSLQPEDFANYYCHQYATYPWTFGGGTKVEIK",binds
15,"selected anti-SARS-CoV-2 spike antibody D2 (antibody, V domains shown) VH: QVQLVQSGAEVKKPGASVKVSCKVSGYSFTDHSIHWVRQAPGKGLEWMGGINPYTGDTIYAQKFQGRVTMTEDTSTDTAYMELSSLKSEDTAVYYCARDARLLDYWGQGAQVTVSS VL: DIQMTQSPSSVSASVGDRVTITCRASRSIGNHLAWYQQKPGKAPKLLIYASSNLASGVPSRFSGSGSGTDFTLTISSLQPEDFANYYCHQYATYPWTFGGGTKVEIK",binds
16,"selected anti-SARS-CoV-2 spike antibody D3 (antibody, V domains shown) VH: EVQLVQSGAEVKKPGASVKVSCKVSGYSFADYAIHWVRQAPGKGLEWMGGINPNIGDTIYAQKFQGRVTMTEDTSTDTAYMELSSLKSEDTAVYYCARDGYDFWSGSYGMDVWGQGTTVTVSS VL: DIQMTQSPSSVSASVGDRVTITCRASQDIGNHLAWYQQKPGKAPKLLIYASSNLASGVPSRFSGSGSGTDFTLTISSLQPEDFANYYCQQYSEYPWTFGGGTKVEIK",binds
17,"selected anti-SARS-CoV-2 spike antibody A12 (antibody, V domains shown) VH: EVQLVQSGAEVKKPGASVKVSCKVSGYSFTDHSIHWVRQAPGKGLEWMGGINPYTGDTIYAQKFQGRVTMTEDTSTDTAYMELSSLKSEDTAVYYCARDGWGSLLNGIAVAGLDYWGQGTLVTVSS VL: DIQMTQSPSSVSASVGDRVTITCRASQDIGNHLAWYQQKPGKAPKLLIYASSNLASGVPSRFSGSGSGTDFTLTISSLQPEDFANYYCHQYATYPWTFGGGTKVEIK",binds
18,"selected anti-SARS-CoV-2 spike antibody B7 (antibody, V domains shown) VH: QVQLVQSGAEVKKPGASVKVSCKVSGYSFTDHSIHWVRQAPGKGLEWMGGINPNIGDTIYAQKFQGRVTMTEDTSTDTAYMELSSLKSEDTAVYYCAKDGWGSLLNGIAVAGLDYWGQGTLVTVSS VL: DIQMTQSPSSVSASVGDRVTITCRASQDIGNHLAWYQQKPGKAPKLLIYASSNLASGVPSRFSGSGSGTDFTLTISSLQPEDFANYYCHQYATYPWTFGGGTKVEIK",binds
19,"selected anti-SARS-CoV-2 spike antibody G4 (antibody, V domains shown) VH: QVQLVQSGAEVKKPGASVKVSCKVSGYTLSDHAIHWVRQAPGKGLEWMGGINPYTGDTIYAQKFQGRVTMTEDTSTDTAYMELSSLKSEDTAVYYCARDGYDFWSGSYGMDVWGQGTTVTVSS VL: DIQMTQSPSSVSASVGDRVTITCRASQDIGNHLAWYQQKPGKAPKLLIYASSNLASGVPSRFSGSGSGTDFTLTISSLQPEDFANYYCHQYATYPWTFGGGTKVEIK",binds
20,"selected anti-SARS-CoV-2 spike antibody C1 (antibody, V domains shown) VH: EVQLVQSGAEVKKPGASVKVSCKVSGYSFTDHSIHWVRQAPGKGLEWMGGISTQRGDTIYAQKFQGRVTMTEDTSTDTAYMELSSLKSEDTAVYYCARDGYYGSGTYYYYGMDVWGQGTTVTVSS VL: DIQMTQSPSSVSASVGDRVTITCRASQSIGSFLAWYQQKPGKAPKLLIYGESNRATGVPSRFSGSGSGTDFTLTISSLQPEDFANYYCQQYNRYPWAFGGGTKVEIK",binds
21,"selected anti-SARS-CoV-2 spike antibody C7 (antibody, V domains shown) VH: QVQLVQSGAEVKKPGASVKVSCKVSGYSFTNYAIHWVRQAPGKGLEWMGGITPYNADTIYAQKFQGRVTMTEDTSTDTAYMELSSLKSEDTAVYYCARDGGNWAAPYSMDVWGNGTLVTVSS VL: DIQMTQSPSSVSASVGDRVTITCRASHGISSYLAWYQQKPGKAPKLLIYDATIRATGVPSRFSGSGSGTDFTLTISSLQPEDFANYYCHQYATYPWTFGGGTKVEIK",binds
